Source: the supplement of paper PMC10567573

B1: SNAP91 (parent)
chain: FAQPMMRPPFGAAAVPGTQLSPSP
B2: ZC3H15 (parent)
chain: ENLFTGEDLDELEEELNTLDLEE

Variants of: B1
Assay: protein stability index of a GFP-peptide fusion (GPS, HEK-293T) (PSI 1-6); higher = more stable
Details: c terminus: a fixed tail appended
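Further: lentivirally expressed fusions sorted by FACS into six bins by GFP to DsRed ratio, PSI derived from sequencing read proportions per bin multiplied by bin number.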

Point of comparison: FAQGMMRPPFGAAAVPGTQLSPSP, protein stability index 2.01. Against it:
- FAQPNMRPPFGAAAVPGTQLSPSP — higher, 3.22
- FAQPPMRPPFGAAAVPGTQLSPSP — higher, 4.01
- FAQPKMRPPFGAAAVPGTQLSPSP — higher, 2.61
- FAQPDMRPPFGAAAVPGTQLSPSP — higher, 3.52
- FAQPHMRPPFGAAAVPGTQLSPSP — higher, 2.86
- FAQPAMRPPFGAAAVPGTQLSPSP — higher, 3.49
- FAQPLMRPPFGAAAVPGTQLSPSP — higher, 3.4
- FAQPIMRPPFGAAAVPGTQLSPSP — higher, 2.59
- FAQPQMRPPFGAAAVPGTQLSPSP — higher, 3.48
- FAQPFMRPPFGAAAVPGTQLSPSP — higher, 2.54
- FAQPEMRPPFGAAAVPGTQLSPSP — higher, 3.61
- FAQPGMRPPFGAAAVPGTQLSPSP — higher, 2.77
- FAQPCMRPPFGAAAVPGTQLSPSP — higher, 2.68
- QAQPMMRPPFGAAAVPGTQLSPSP — higher, 4.66
- VAQPMMRPPFGAAAVPGTQLSPSP — higher, 4.42
- WAQPMMRPPFGAAAVPGTQLSPSP — higher, 3.41
- SAQPMMRPPFGAAAVPGTQLSPSP — higher, 4.11
- GAQPMMRPPFGAAAVPGTQLSPSP — higher, 4.5
- EAQPMMRPPFGAAAVPGTQLSPSP — higher, 4.68
- YAQPMMRPPFGAAAVPGTQLSPSP — higher, 2.24
- IAQPMMRPPFGAAAVPGTQLSPSP — higher, 4.02
- AAQPMMRPPFGAAAVPGTQLSPSP — higher, 4.67
- CAQPMMRPPFGAAAVPGTQLSPSP — higher, 3.3
- LAQPMMRPPFGAAAVPGTQLSPSP — higher, 3.59
- DAQPMMRPPFGAAAVPGTQLSPSP — higher, 4.55
- NAQPMMRPPFGAAAVPGTQLSPSP — higher, 4.53
- KAQPMMRPPFGAAAVPGTQLSPSP — higher, 4.28
- RAQPMMRPPFGAAAVPGTQLSPSP — higher, 4.19
- MAQPMMRPPFGAAAVPGTQLSPSP — higher, 4.26
- HAQPMMRPPFGAAAVPGTQLSPSP — higher, 4.02
- TAQPMMRPPFGAAAVPGTQLSPSP — higher, 4.53
- PAQPMMRPPFGAAAVPGTQLSPSP — higher, 4.75
- FAQYMMRPPFGAAAVPGTQLSPSP — lower, 1.83
- FAQVMMRPPFGAAAVPGTQLSPSP — higher, 2.33
- FAQFMMRPPFGAAAVPGTQLSPSP — lower, 1.44
- FAQAMMRPPFGAAAVPGTQLSPSP — higher, 2.05
- FAQEMMRPPFGAAAVPGTQLSPSP — higher, 2.77
- FAQCMMRPPFGAAAVPGTQLSPSP — higher, 2.48
- FAQSMMRPPFGAAAVPGTQLSPSP — higher, 2.26
- FAQHMMRPPFGAAAVPGTQLSPSP — higher, 2.75
- FAQKMMRPPFGAAAVPGTQLSPSP — lower, 1.97
- FAQMMMRPPFGAAAVPGTQLSPSP — lower, 1.61
- FAQDMMRPPFGAAAVPGTQLSPSP — higher, 2.7
- FAQLMMRPPFGAAAVPGTQLSPSP — lower, 1.65
- FAQQMMRPPFGAAAVPGTQLSPSP — higher, 2.02
- FAQRMMRPPFGAAAVPGTQLSPSP — higher, 2.54
- FAQWMMRPPFGAAAVPGTQLSPSP — lower, 1.83
- FAQTMMRPPFGAAAVPGTQLSPSP — higher, 2.53
- FAQIMMRPPFGAAAVPGTQLSPSP — lower, 1.96
- FAQNMMRPPFGAAAVPGTQLSPSP — higher, 2.36
- FWQPMMRPPFGAAAVPGTQLSPSP — higher, 2.45
- FSQPMMRPPFGAAAVPGTQLSPSP — higher, 3.81
- FCQPMMRPPFGAAAVPGTQLSPSP — higher, 2.73
- FIQPMMRPPFGAAAVPGTQLSPSP — lower, 1.94
- FRQPMMRPPFGAAAVPGTQLSPSP — higher, 3.85
- FLQPMMRPPFGAAAVPGTQLSPSP — higher, 2.62
- FHQPMMRPPFGAAAVPGTQLSPSP — higher, 2.27
- FDQPMMRPPFGAAAVPGTQLSPSP — higher, 4.69
- FTQPMMRPPFGAAAVPGTQLSPSP — higher, 3.09
- FQQPMMRPPFGAAAVPGTQLSPSP — higher, 3.33
- FNQPMMRPPFGAAAVPGTQLSPSP — higher, 4.59
- FMQPMMRPPFGAAAVPGTQLSPSP — higher, 3.62
- FEQPMMRPPFGAAAVPGTQLSPSP — higher, 4.45
- FPQPMMRPPFGAAAVPGTQLSPSP — higher, 3.72
- FGQPMMRPPFGAAAVPGTQLSPSP — higher, 3.52
- FVQPMMRPPFGAAAVPGTQLSPSP — lower, 1.71
- FYQPMMRPPFGAAAVPGTQLSPSP — higher, 3.56
- FKQPMMRPPFGAAAVPGTQLSPSP — higher, 3.84
- FFQPMMRPPFGAAAVPGTQLSPSP — higher, 2.96
- FAMPMMRPPFGAAAVPGTQLSPSP — higher, 2.93
- FADPMMRPPFGAAAVPGTQLSPSP — higher, 2.12
- FAAPMMRPPFGAAAVPGTQLSPSP — higher, 3.3
- FAFPMMRPPFGAAAVPGTQLSPSP — higher, 3.04
- FAKPMMRPPFGAAAVPGTQLSPSP — higher, 3.32
- FAEPMMRPPFGAAAVPGTQLSPSP — higher, 2.17
- FAIPMMRPPFGAAAVPGTQLSPSP — higher, 2.55
- FANPMMRPPFGAAAVPGTQLSPSP — higher, 2.98
- FAVPMMRPPFGAAAVPGTQLSPSP — higher, 3.45
- FAYPMMRPPFGAAAVPGTQLSPSP — lower, 1.82
- FAGPMMRPPFGAAAVPGTQLSPSP — higher, 2.8
- FAHPMMRPPFGAAAVPGTQLSPSP — higher, 2.86
- FATPMMRPPFGAAAVPGTQLSPSP — higher, 3.56
- FACPMMRPPFGAAAVPGTQLSPSP — higher, 2.58
- FARPMMRPPFGAAAVPGTQLSPSP — higher, 3.42
- FASPMMRPPFGAAAVPGTQLSPSP — higher, 3.61
- FALPMMRPPFGAAAVPGTQLSPSP — higher, 3.01
- FAWPMMRPPFGAAAVPGTQLSPSP — higher, 2.32

Variants of: B2
Assay: as above
Details: c terminus: native

Point of comparison: ENLFTGEDLDELEEELNTLDSEE, protein stability index 2.58. Against it:
- ENLFTGEDLDELEEELSTLDLEE — higher, 4.45
- ENLFTGEDLDELEEELWTLDLEE — higher, 2.69
- ENLFTGEDLDELEEELVTLDLEE — higher, 3.5
- ENLFTGEDLDELEEELRTLDLEE — higher, 5.04
- ENLFTGEDLDELEEELYTLDLEE — higher, 3.79
- ENLFTGEDLDELEEELTTLDLEE — higher, 3.66
- ENLFTGEDLDELEEELNTLDKEE — higher, 2.71
- ENLFTGEDLDELEEELNTLDGEE — higher, 4.82
- ENLFTGEDLDELEEELNTLDDEE — higher, 4.99
- ENLFTGEDLDELEEELNTLDYEE — higher, 3.62
- ENLFTGEDLDELEEELNTLDCEE — lower, 2.13
- ENLFTGEDLDELEEELNTLDAEE — lower, 2.44
- ENLFTGEDLDELEEELNTLDIEE — lower, 2.25
- ENLFTGEDLDELEEELNTLDFEE — higher, 3.33
- ENLFTGEDLDELEEELNTLDTEE — higher, 2.68
- ENLFTGEDLDELEEELNTLDHEE — higher, 3.31
- ENLFTGEDLDELEEELNTLDNEE — lower, 1.1
- ENLFTGEDLDELEEELNTLDQEE — higher, 4.88
- ENLFTGEDLDELEEELNTLDEEE — higher, 4.73
- ENLFTGEDLDELEEELNTLDVEE — higher, 2.59
- ENLFTGEDLDELEEELNTLDREE — higher, 3.48
- ENLFTGEDLDELEEELNTLDLED — higher, 5.47
- ENLFTGEDLDELEEELNTLDLEH — higher, 5.42
- ENLFTGEDLDELEEELNTLDLES — higher, 5.89
- ENLFTGEDLDELEEELNTLDLEF — higher, 5.07
- ENLFTGEDLDELEEELNTLDLEQ — higher, 4.97
- ENLFTGEDLDELEEELNTLDLEN — higher, 5.51
- ENLFTGEDLDELEEELNTLDLEP — higher, 5.67
- ENLFTGEDLDELEEELNTLDLEY — higher, 5.58
- ENLFTGEDLDELEEELNTLDLEK — higher, 5.61
- ENLFTGEDLDELEEELNTLDLEV — higher, 5.29
- ENLFTGEDLDELEEELNTLDLEI — higher, 5.81
- ENLFTGEDLDELEEELNTLDLEG — higher, 5.05
- ENLFTGEDLDELEEELNTLDLER — higher, 3.26
- ENLFTGEDLDELEEELNTLDLEL — higher, 5.73
- ENLFTGEDLDELEEELNTLDLEA — higher, 5.96
- ENLFTGEDLDELEEELNTLDLEM — higher, 4.61
- ENLFTGEDLDELEEELNTLDLEW — higher, 5.54
- ENLFTGEDLDELEEELNTLPLEE — higher, 3.12
- ENLFTGEDLDELEEELNTLYLEE — higher, 5.22
- ENLFTGEDLDELEEELNTLALEE — higher, 4.55
- ENLFTGEDLDELEEELNTLNLEE — higher, 4.67
- ENLFTGEDLDELEEELNTLGLEE — higher, 5.35
- ENLFTGEDLDELEEELNTLSLEE — higher, 5.25
- ENLFTGEDLDELEEELNTLFLEE — higher, 4.85
- ENLFTGEDLDELEEELNTLELEE — higher, 4.52
- ENLFTGEDLDELEEELNTLMLEE — higher, 3.71
- ENLFTGEDLDELEEELNTLCLEE — higher, 5.38
- ENLFTGEDLDELEEELNTLRLEE — higher, 5.48
- ENLFTGEDLDELEEELNTLWLEE — higher, 4.2
- ENLFTGEDLDELEEELNTLTLEE — higher, 5.39
- ENLFTGEDLDELEEELNTLVLEE — higher, 4.99
- ENLFTGEDLDELEEELNTLKLEE — higher, 5.11
- ENLFTGEDLDELEEELNTLHLEE — higher, 4.87
- ENLFTGEDLDELEEELNTIDLEE — higher, 3.98
- ENLFTGEDLDELEEELNTGDLEE — higher, 4.69
- ENLFTGEDLDELEEELNTTDLEE — higher, 4.7
- ENLFTGEDLDELEEELNTDDLEE — higher, 5.17
- ENLFTGEDLDELEEELNTFDLEE — higher, 2.97
- ENLFTGEDLDELEEELNTEDLEE — higher, 5.17
- ENLFTGEDLDELEEELNTVDLEE — higher, 3.86
- ENLFTGEDLDELEEELNTPDLEE — higher, 4.67
- ENLFTGEDLDELEEELNTSDLEE — higher, 4.91
- ENLFTGEDLDELEEELNTWDLEE — lower, 1.11
- ENLFTGEDLDELEEELNTQDLEE — higher, 4.27
- ENLFTGEDLDELEEELNTYDLEE — lower, 1.99
- ENLFTGEDLDELEEELNTKDLEE — higher, 4.95
- ENLFTGEDLDELEEELNTNDLEE — higher, 4.52
- ENLFTGEDLDELEEELNTADLEE — higher, 4.58
- ENLFTGEDLDELEEELNTHDLEE — higher, 3.85
- ENLFTGEDLDELEEELNRLDLEE — higher, 4.26
- ENLFTGEDLDELEEELNNLDLEE — higher, 5.31
- ENLFTGEDLDELEEELNKLDLEE — higher, 5.53
- ENLFTGEDLDELEEELNPLDLEE — lower, 2.54
- ENLFTGEDLDELEEELNVLDLEE — higher, 3.58
- ENLFTGEDLDELEEELNHLDLEE — higher, 4.81
- ENLFTGEDLDELEEELNCLDLEE — higher, 4.8
- ENLFTGEDLDELEEELNQLDLEE — higher, 5.2
- ENLFTGEDLDELEEELNDLDLEE — higher, 4.24
- ENLFTGEDLDELEEELNSLDLEE — higher, 5.05
- ENLFTGEDLDELEEELNALDLEE — higher, 4.22
- ENLFTGEDLDELEEELNWLDLEE — higher, 3.31
- ENLFTGEDLDELEEELNLLDLEE — higher, 4.96
- ENLFTGEDLDELEEELNTLDLCE — higher, 5.58
- ENLFTGEDLDELEEELNTLDLTE — higher, 5.41
- ENLFTGEDLDELEEELNTLDLFE — higher, 5.82
- ENLFTGEDLDELEEELNTLDLYE — higher, 5.5
- ENLFTGEDLDELEEELNTLDLNE — higher, 5.37
- ENLFTGEDLDELEEELNTLDLPE — higher, 5.17
- ENLFTGEDLDELEEELNTLDLRE — higher, 5.7
- ENLFTGEDLDELEEELNTLDLIE — higher, 5.44
- ENLFTGEDLDELEEELNTLDLSE — higher, 5.84
- ENLFTGEDLDELEEELNTLDLHE — higher, 5.94
- ENLFTGEDLDELEEELNTLDLWE — higher, 5.39
- ENLFTGEDLDELEEELNTLDLKE — higher, 5.67
- ENLFTGEDLDELEEELNTLDLDE — higher, 5.75
- ENLFTGEDLDELEEELNTLDLQE — higher, 5.67
- ENLFTGEDLDELEEELNTLDLVE — higher, 5.55
- ENLFTGEDLDELEEELNTLDLAE — higher, 5.34
- ENLFTGEDLDELEEELNTLDLGE — higher, 5.33
- ENLFTGEDLDELEEELNTLDLME — higher, 5.37
- ENLFTGEDLDELEEELNTLDLLE — higher, 5.79
